Measured values reported in US20170319711A1.

Key:
[1] = biological target: Human 5T4 antigen on cells (human) (UniProt Q13641); experiment: flow cytometry, MDAMB468 cells
[2] = biological target: Human 5T4 antigen on cells (human) (UniProt Q13641); experiment: flow cytometry, A431 cells
[3] = biological target: Human 5T4 antigen on cells (human) (UniProt Q13641); experiment: flow cytometry, PC3mm2 cells

Measured: Mean Fluorescent Intensity

Chain of Human 5T4 antigen on cells (human) (Q13641 32-420 limits assumed): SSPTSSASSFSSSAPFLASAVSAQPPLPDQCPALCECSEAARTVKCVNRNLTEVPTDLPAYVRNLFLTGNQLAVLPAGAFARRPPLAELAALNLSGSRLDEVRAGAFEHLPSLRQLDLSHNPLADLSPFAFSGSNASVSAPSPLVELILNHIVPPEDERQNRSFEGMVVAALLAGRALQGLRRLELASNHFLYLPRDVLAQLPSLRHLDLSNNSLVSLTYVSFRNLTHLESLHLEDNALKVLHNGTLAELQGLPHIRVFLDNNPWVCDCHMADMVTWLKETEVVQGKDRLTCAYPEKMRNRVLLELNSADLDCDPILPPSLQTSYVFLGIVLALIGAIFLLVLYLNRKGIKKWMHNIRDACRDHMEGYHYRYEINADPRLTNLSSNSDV

IgG control (antibody)
< 100: [1] | [2] | [3]
